# Results from paper PMC11194106.
# Target: Streptococcus pyogenes Cas9 (SpyCas9) (UniProt Q99ZW2)
# Assay: SEC co-migration followed by SDS-PAGE, band intensity quantified
# Details: parent: est. 99; read off a plot
row,Substance,response [%]
1,AcrIIA28 from Streptococcus phage Javan 128 H30W,81
2,AcrIIA28 from Streptococcus phage Javan 128 K7D,41
3,AcrIIA28 from Streptococcus phage Javan 128 K38W,83
4,AcrIIA28 from Streptococcus phage Javan 128 K48D,93
5,AcrIIA28 from Streptococcus phage Javan 128 R41W,96
6,AcrIIA28 from Streptococcus phage Javan 128 S34W,97
7,AcrIIA28 from Streptococcus phage Javan 128 S81W,21
8,AcrIIA28 from Streptococcus phage Javan 128 W45I,3
